± gives the uncertainty stated by the source.
B1: Tumor protein p73, residues 487 to 549; numbered along this chain, O15350 (parent)
chain: YHADPSLVSFLTGLGCPNCIEYFTSQGLQSIYHLQNLTIEDLGALKIPEQYRMTIWRGLQDLK

Variants of: B1
Test: abundance fitness (aPCA) (normalised: wild type 0, dead -1); higher = more abundant; growth selection in yeast, the domain comes from the species named
Conditions: Homo sapiens

Variant	abundance fitness
YHADPSLVSFLTGLGCPNCIEYFTSQGLQSIYHLQNLTIEDLGALKIPEQYSMTIWRGLQDLK	-0.066 ± 0.05
YHADPSLVSFLTGLGCPNCIEYFTSQGLQSIYHLQNLTIEDLGALKIPEQYTMTIWRGLQDLK	0.009 ± 0.045
YHADPSLVSFLTGLGCPNCIEYFTSQGLQSIYHLQNLTIEDLGALKIPEQYWMTIWRGLQDLK	-0.082 ± 0.048
YHADPSLVSFLTGLGCPNCIEYFTSQGLQSIYHLQNLTIEDLGALKIPEQYYMTIWRGLQDLK	0.095 ± 0.24
YHADPSLVSFLTGLGCPNCIEYFTSQGLQSIYHLQNLTIEDLGALKIPEQYRATIWRGLQDLK	-0.025 ± 0.023
YHADPSLVSFLTGLGCPNCIEYFTSQGLQSIYHLQNLTIEDLGALKIPEQYRDTIWRGLQDLK	0.019 ± 0.047
YHADPSLVSFLTGLGCPNCIEYFTSQGLQSIYHLQNLTIEDLGALKIPEQYRFTIWRGLQDLK	-0.123 ± 0.063
YHADPSLVSFLTGLGCPNCIEYFTSQGLQSIYHLQNLTIEDLGALKIPEQYRGTIWRGLQDLK	-0.025 ± 0.032
YHADPSLVSFLTGLGCPNCIEYFTSQGLQSIYHLQNLTIEDLGALKIPEQYRHTIWRGLQDLK	0.108 ± 0.075
YHADPSLVSFLTGLGCPNCIEYFTSQGLQSIYHLQNLTIEDLGALKIPEQYRITIWRGLQDLK	-0.072 ± 0.1
YHADPSLVSFLTGLGCPNCIEYFTSQGLQSIYHLQNLTIEDLGALKIPEQYRKTIWRGLQDLK	-0.033 ± 0.078
YHADPSLVSFLTGLGCPNCIEYFTSQGLQSIYHLQNLTIEDLGALKIPEQYRLTIWRGLQDLK	0.021 ± 0.032
YHADPSLVSFLTGLGCPNCIEYFTSQGLQSIYHLQNLTIEDLGALKIPEQYRNTIWRGLQDLK	0.01 ± 0.075
YHADPSLVSFLTGLGCPNCIEYFTSQGLQSIYHLQNLTIEDLGALKIPEQYRPTIWRGLQDLK	-0.051 ± 0.053
YHADPSLVSFLTGLGCPNCIEYFTSQGLQSIYHLQNLTIEDLGALKIPEQYRRTIWRGLQDLK	0.027 ± 0.028
YHADPSLVSFLTGLGCPNCIEYFTSQGLQSIYHLQNLTIEDLGALKIPEQYRSTIWRGLQDLK	0.008 ± 0.04
YHADPSLVSFLTGLGCPNCIEYFTSQGLQSIYHLQNLTIEDLGALKIPEQYRTTIWRGLQDLK	0.009 ± 0.043
YHADPSLVSFLTGLGCPNCIEYFTSQGLQSIYHLQNLTIEDLGALKIPEQYRVTIWRGLQDLK	-0.061 ± 0.021
YHADPSLVSFLTGLGCPNCIEYFTSQGLQSIYHLQNLTIEDLGALKIPEQYRWTIWRGLQDLK	-0.04 ± 0.042
YHADPSLVSFLTGLGCPNCIEYFTSQGLQSIYHLQNLTIEDLGALKIPEQYRYTIWRGLQDLK	-0.302 ± 0.16
YHADPSLVSFLTGLGCPNCIEYFTSQGLQSIYHLQNLTIEDLGALKIPEQYRMAIWRGLQDLK	-0.034 ± 0.042

Variant	abundance fitness
YHADPSLVSFLTGLGCPNCIEYFTSQGLQSIYHLQNLTIEDLGALKIPEQYRMCIWRGLQDLK	-0.13 ± 0.1
YHADPSLVSFLTGLGCPNCIEYFTSQGLQSIYHLQNLTIEDLGALKIPEQYRMDIWRGLQDLK	-0.01 ± 0.065
YHADPSLVSFLTGLGCPNCIEYFTSQGLQSIYHLQNLTIEDLGALKIPEQYRMEIWRGLQDLK	-0.061 ± 0.07
YHADPSLVSFLTGLGCPNCIEYFTSQGLQSIYHLQNLTIEDLGALKIPEQYRMFIWRGLQDLK	-0.362 ± 0.14
YHADPSLVSFLTGLGCPNCIEYFTSQGLQSIYHLQNLTIEDLGALKIPEQYRMGIWRGLQDLK	-0.074 ± 0.038
YHADPSLVSFLTGLGCPNCIEYFTSQGLQSIYHLQNLTIEDLGALKIPEQYRMHIWRGLQDLK	0.071 ± 0.087
YHADPSLVSFLTGLGCPNCIEYFTSQGLQSIYHLQNLTIEDLGALKIPEQYRMIIWRGLQDLK	0.025 ± 0.062
YHADPSLVSFLTGLGCPNCIEYFTSQGLQSIYHLQNLTIEDLGALKIPEQYRMKIWRGLQDLK	0.06 ± 0.047
YHADPSLVSFLTGLGCPNCIEYFTSQGLQSIYHLQNLTIEDLGALKIPEQYRMLIWRGLQDLK	-0.01 ± 0.051
YHADPSLVSFLTGLGCPNCIEYFTSQGLQSIYHLQNLTIEDLGALKIPEQYRMMIWRGLQDLK	-0.116 ± 0.058
YHADPSLVSFLTGLGCPNCIEYFTSQGLQSIYHLQNLTIEDLGALKIPEQYRMQIWRGLQDLK	0.028 ± 0.068
YHADPSLVSFLTGLGCPNCIEYFTSQGLQSIYHLQNLTIEDLGALKIPEQYRMRIWRGLQDLK	0.02 ± 0.043
YHADPSLVSFLTGLGCPNCIEYFTSQGLQSIYHLQNLTIEDLGALKIPEQYRMSIWRGLQDLK	-0.042 ± 0.075
YHADPSLVSFLTGLGCPNCIEYFTSQGLQSIYHLQNLTIEDLGALKIPEQYRMVIWRGLQDLK	0.088 ± 0.038
YHADPSLVSFLTGLGCPNCIEYFTSQGLQSIYHLQNLTIEDLGALKIPEQYRMWIWRGLQDLK	-0.142 ± 0.061
YHADPSLVSFLTGLGCPNCIEYFTSQGLQSIYHLQNLTIEDLGALKIPEQYRMYIWRGLQDLK	-0.189 ± 0.069
YHADPSLVSFLTGLGCPNCIEYFTSQGLQSIYHLQNLTIEDLGALKIPEQYRMTAWRGLQDLK	-0.918 ± 0.11
YHADPSLVSFLTGLGCPNCIEYFTSQGLQSIYHLQNLTIEDLGALKIPEQYRMTCWRGLQDLK	-0.459 ± 0.079
YHADPSLVSFLTGLGCPNCIEYFTSQGLQSIYHLQNLTIEDLGALKIPEQYRMTEWRGLQDLK	-0.869 ± 0.14
YHADPSLVSFLTGLGCPNCIEYFTSQGLQSIYHLQNLTIEDLGALKIPEQYRMTFWRGLQDLK	-0.601 ± 0.096
YHADPSLVSFLTGLGCPNCIEYFTSQGLQSIYHLQNLTIEDLGALKIPEQYRMTKWRGLQDLK	-1.01 ± 0.14

Source: the Human Domainome abundance scans (Beltran et al. 2025)
